Tests used:
brox_human BROX [1] = target: brox_human BROX (UniProt Q5VW32)
brox_human BROX [2] = target: brox_human BROX (UniProt Q5VW32); remark: listed apart in the source

brox_human BROX, sequence (Q5VW32 whole entry): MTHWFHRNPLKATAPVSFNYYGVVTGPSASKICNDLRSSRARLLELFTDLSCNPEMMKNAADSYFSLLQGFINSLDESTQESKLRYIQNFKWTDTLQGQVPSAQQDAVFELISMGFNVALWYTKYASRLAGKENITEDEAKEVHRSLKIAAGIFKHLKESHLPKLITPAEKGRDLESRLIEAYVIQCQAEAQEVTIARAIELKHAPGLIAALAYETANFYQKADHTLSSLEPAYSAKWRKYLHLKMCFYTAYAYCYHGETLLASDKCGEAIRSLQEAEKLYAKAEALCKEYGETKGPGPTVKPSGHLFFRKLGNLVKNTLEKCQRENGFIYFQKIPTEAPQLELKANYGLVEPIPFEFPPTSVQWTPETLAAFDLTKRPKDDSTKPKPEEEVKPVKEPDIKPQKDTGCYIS
Charged multivesicular body protein 5 (Homo sapiens), Q9NZZ3-1 P214G, sequence (Q9NZZ3 whole entry P214G): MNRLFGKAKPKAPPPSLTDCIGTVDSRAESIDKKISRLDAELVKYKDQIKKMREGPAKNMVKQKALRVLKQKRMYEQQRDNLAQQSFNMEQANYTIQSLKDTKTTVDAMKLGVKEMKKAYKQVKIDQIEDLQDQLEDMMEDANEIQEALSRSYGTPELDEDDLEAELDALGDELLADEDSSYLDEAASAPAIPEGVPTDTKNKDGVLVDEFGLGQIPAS
Charged multivesicular body protein 5 (Homo sapiens), Q9NZZ3-1 F211A, sequence (Q9NZZ3 whole entry F211A): as the sequence (Q9NZZ3 whole entry P214G) above, with F211A, G214P counted along it
Charged multivesicular body protein 5 (Homo sapiens), Q9NZZ3-1 L213A, sequence (Q9NZZ3 whole entry L213A): as the sequence (Q9NZZ3 whole entry P214G) above, with L213A, G214P counted along it

Substance | effect of a mutation on the interaction (brox_human BROX [1]) | effect of a mutation on the interaction (brox_human BROX [2])
Charged multivesicular body protein 5 (Homo sapiens), Q9NZZ3-1 F211A | decreasing interaction strength | disrupting interaction strength
Charged multivesicular body protein 5 (Homo sapiens), Q9NZZ3-1 L213A | disrupting interaction strength | 
Charged multivesicular body protein 5 (Homo sapiens), Q9NZZ3-1 P214G | decreasing interaction strength | disrupting interaction strength

From IntAct's records for PubMed 22484091
